A protein production outcome set (Wang et al. 2014)

Test: label from the status in PepcDB records

| Sequence | protein production |
| --- | --- |
| MKQKSLNPLSSSSPNYDEMIQENFKPHWIIGIDPNLSGALAVLKFDDKGSCFAQVYDTPQLEVVVQNIRTRSFNEKSMLELIRSLDVPSGTKAFVAKYIHPENAITAYNDGLGCGLWTLLTSSISVIYVTPSTWDKHFNLSIWSLDGGRKLALEMFPSLKLTTKIDDNARANALLIAAYGHATSDTRYYSFSQIK | failed |
| MKQLPKTRTALLLAFLVIMWGVNWPLSKAALAYSPPLLFAGIRTLIGGLLLVIVALPRIHKLRLKETWPIYLVSALLNITLFYGLQTIGLNYLPAGLFSAIVFFQPVLMGVFSWLWLGESMFVMKVIGLILGFAGVAVISAAGFGGHISVIGVLLALGSAVSWALGTVYMKKTGSRVDSIWMVALQLTIGSVFLLISGFWTESFSAIQWTAPFITSLLFISVFVIALGWLVFFTLVGSGEASKVASYTFLIPLISIVASSIFLHEPLTLSLLAGLLLIVTSICLVNTKSKAQKAAAIGINEKAAQ | failed |
| MKQPATPNAAEETKSEQKQKSKKFPTPTELISHYQKRGLEPAEASIKVIEDLQNALVRVVSSSRNASSKDKLVTDARKIDAINGRLAVVDAKLETKPGYVETFALGLASGATLNGISAVWPHVTRGIGQIWSAVRIGTDPSSTS | failed |
| MKQTAESIRDRFMKLGIDVPVEDIESRLDELIKKFKVPSNEAQRSVTNYFLKKYSIPKNEFYVRQAEPQLTKIVDIVENGQWANLKAKVIQLWENTHESISQVGLLGDETGIIKFTIWKNAELPLLEQGESYLLRSVVVGEYNDRFQVQVNKNSSIEKLSEPIEVGGGDFTPAAREAELRNIADLTGNQWATVRGKVIQLWENSHESIEQAGLIGDETGVIKFTNWASSELPDMEEGRSYLLKNVVVNEWNGKAQVQLNRSSSIEELDEDIEVRTSMSSYFGAMVDIQTGSGLIKRCPECKRALVKGACAEHGKVKGEYDLRIKAVLDSGTSTQDALINRELTEELSGISLDSAIAMAADALDPGVVLDKLKHELVGRYYTITGHKLDRYILVESITPRTSLDRELLDQMLAEPIAQPEVELEHHHHHH | not failed |
| MKQWADDENLPMERYKNYQMIVPAFIIKDILDGKIPETFEDSKNIKMIEASWGEESYTKGHIPTSVHVNTDIIEPPPTWMLDNDDNLTKFALDYGLTKDDTVIVSSSTPMASYRLAVILRYIGVKDVRVLNGGTNSWLSAGYELEFISNPKLEHHHHHH | failed |
| MKQWLAAMETSVLVMGALRLFSGSAEIFAALLMLYVNDAKKALFINGMLAFVGPTVLILTMTIGIASVASEISFLKLFFLALGICCIFIALLK | failed |
| MKRAAAKHLIERYYHQLTEGCGNEACTNEFCASCPTFLRMDNNAAAIKALELYKINAKLCDPHP | not failed |
| MKRDGHTHTEFCPHGTHDDVEEMILKAIELDFDEYSIVEHAPLSSEFMKNTAGNQEAVTTASMSMSDLPYYFKKMNQMKKKYASDLLIHIGFEVDYLIGYEDFTRDFLNEYGPQTDDGVLSLHFLEGQGGFRSIDFTAEDYNEGIVQFYGGFEQAQLVYLAGVKQSIEADLGAFKPRRIGHISLCQKFQQFFGADGRDFTAEVIAEFEAILALVKKRGYELDFNTAGLFKPLCKETYPPKEIVTLARALEIPFVYGSDSHGVADIGRGYNTYCQKLEHHHHHH | not failed |
| MKREAEGGFQNRYLSNCPGSSRLRVWVPIVEASPGRRPYPFRCQPCNFRLGGRAVGGLAAAQPGGRPRWRRAARRAARAPAPPWLPLPSSPRSNPLTRLLPWFKSIDLNKPIDKRIYKGTQPTCHDFNQFTAATETISLLVGFSAGQVQYLDLIKKDTSKLFNEERLIDKTKVTYLKWLPESESLFLASHASGHLYLYNVSHPCASTPPQYSLLKQGEGFAVYAAKSKAPRNPLAKWAVGEGPLNEFAFSPDGRHLACVSQDGCLRVFHFDSMLLRGLMKSYFGGLLCVCWSPDGRYVVTGGEDDLVTVWSFTEGRVVARGHGHKSWVNAVAFDPYTTRAEETASASGDGDPSGEEEEPEATSSDTGAPVSPLPKAGSVTYRFGSAGQDTQFCLWDLTEDVLSPHPPLARTRTLPGTPGATPPASGGSRAGETGAGPLPRSLSRSNSLPHPAGGGKAGGPSVSMEPGVPFSIGRFATLTLQERRDRGAEKEHKRYHSLGNISRGGSGGNSSNDKLNGPAPRSRLDPAKVLGTALCPRIHEVPLLEPLVCKKIAQERLTVLLFLEDCIITACQEGLVCTWARPGKAFTDEETETQAGEASWPRSPSKSVVEGISSQPGSSPSGTVV | failed |
| MKRFLSIAMALCIGLTMSLDANAKRFGGGKSVGAAPTHQTRQAAPTAPGAPAAAATAGAAGAAGAAAKAGGASRWLGPLAGIAAGGLLASMFMGGGFQGMQIFDILIMAVIAFVIFRFIAARRRKQQEQYAPAGHAPMQREAFEPQQPAGGSIFGGSPAPAARPVINAPAWFNEERFIEAARSHFQSLQQHWDANEMDKIAEFVTPQMLQFLKQERADLGDGFQSTYIDNLQVQLEGVDDRADKTIATLTFSGVSKTSRFDQGEVFSESWNMERAQGDNQPWLVAGIRQNG | failed |
| MKRIIILSPFRGLFRSLLYFLLGLIMALISAGYFSQLFSIVGINRDIAIIISITISFLSLFSSPFNLVLTEVKKEAIAIEEDVVFFFGFPIFIPRISRQNMNTLIAVNLGGALIPLGVSLFLMYELQAYIVYFIINIIVVIIVSKLFSRVIRGVGVIMHPIIPSIFSVISSYVLFYKLHILIPLSAYIGSVLGTLIGADLLNLRRIINEARPQVISIGGMGTFDGIFVSGIISVFISELLVII | failed |
| MKRKHLSGKSIGIVFGTFAPMHVGHVDLITKEKRANDNVLVIVSGSNTQKDRGTRTGLSLNRRFRNVREIFYDDELIVVDKLDEADMPPYPEGWVPWVNRVKDLITKNTDGPEKITFYVGESEYVIELNRYYPQAQVELIECSVINISATEIRDNPIENWRFITKPFRRHF | failed |
| MKRLAKTTLMTAMVAMVSFSIYAQTGRDIAQRVKDRPDGDTRRSELTMKLINKRGAVRERKLISYSIDMGKDKKDKKTIMFFLYPGDVKGTGFLTWDYDQIGKDDDKWLYLPAMKKTRRISGASAKKDYFMGSDFTYDDMGSRNVDEDTHKLLGEETFDGHKCWKLESTSKDQRDVFSKKIAWIRQDCLIPVRVEYYDRMNRLHRLLELSDIAQVDGFWMAQKMNMSNVQTGHRTVLEIKKPEFNRPIDESKFTVTSLEKGSL | not failed |
| MKRLALALKQRKVASWKLEEVKELTELIKNSNTILIGNLEGFPADKLHEIRKKLRGKATIKVTKNTLFKIAAKNAGIDIEKLEQYLTGPNVFIFTKDNPFITNMFFENYKLRRYAMPGDKAEEEVVIPAGDTGMPAGPILSVFGKLKVQTKVQDGKVHVVKDTVVAKPGDVIPAEALPILQKLGIMPVYVKLKIKVAYHEGLVIPAESLKLDLEGYRSNITEAYRNAFTLAVEIAYPTPDVLKFTISKVFKNAIALASEIGYITPESAQAVISKAVAKAYALATAIGGKVDLGVQLPTVQQSQSQQPAAEEKKEEKKEEEKKGPSEEEIASGLASLFG | failed |
| MKRLEVSNQAKLPTQFGEFYIQCFREKGSNGSKDHLVVFTPNFSQNPLVRLHSECLTGDALGSQKCDCGGALQMALERISKEGGLVIYLRQEGRGIGLFNKVNAYALQDKGYDTIQANEMIGFKDDERDYSVAGEILEYYRIKKMRLLTNNPKKIAALEKYAEVTRESLIVCANEHNQGYLEVKKLKMGHLL | failed |
| MKRLLFTVISLLFSVSVLAAESSADRIDLTSSTVGYAAIVIFILAYILVMGEEKLHMRKSKPVLVAAGVIWILIGFVYTGDNAVLAEEAFRENLLKFAELMLFLLVAMTYINALEERRLFDALSAWLMKKGFTYRKLFWITGFLAFFISPIADNLTTALLMSAVVMKVAEGNKKFVALCCSSIVIAVNAAGAFSPFGDITTLMVWQSGKVEFTEFLQLFVPALVNYLIPAVIMSFFIENKSPTTLHTEVELKRGALRITFLFLLTVATAVACHIWLHLPPVLGMMMGLGYLQFFGYFLRMTLPGSLARKRAMAAREGDQKRLQQLGGVVPFDVFSRVSRAEWDTLLFFYGIVLCVGGLGFMGYLGLLSESLYGGLDPTIANSILGVVSALVDNIPVMFAVLSMDPEMSTGHWLLITLACCTGGSLLSIGSASGVALMGQARGYYTFMSHLKWTPVIAIGYAASILLHLWLNQATFLS | failed |
| MKRLMFIGPSQCGKTSLTQSLRGEALHYKKTQAIEWSPMAIDTPGEYLENRCLYSALLTSACEADVIALVLNADAQWSPFSPGFTVPMNRPTIGLVTKADLADPQRISLVAQWLTQAGARQIFITSALNNSGLDAVLDFLNSKEPLCLTKLEHHHHHH | failed |
| MKRSDNVSWSQLKGGIFILVALAFFAGGVLLMGDKTKFFVPKGRLSVIMADVAGLKAGAPVWLAGVDVGVVTQIHFERPEATNEVEIVLEVDREALKKIGADSVVTVKTRGLMGEKYVDITPTREIVAKPVTRLQGTPMPKLDDVVQKAGRAFDRVDAIVAKTERGEGTLGRFASDPKLYDSLVRLTTELNAVAVSVNRGEGTLGMLNKSREPYEKLMSILNRADNTLTDIQSSEGTMSKLIHDRELYDKLVAVASKAGTAADEVRELNRRLLSKDGTLGKLVADREFYDRGLTLINRADTSLKSLEEVTARLQRGEGTAGKLLSDRELYDRLNRTVDDLDLLVKDIKENPKRYVKFSVFLEHHHHHH | failed |
| MKRWIAIILIALMPAAQAGKAAKVTLVVDDVPVVQVLQALAEQERQNLVVSPDVSGTLSLHLTDVPWKQALQTVVNSAGLVLRQEGNILHVHSQAWQKEHSARQDAERLRLQANLPLENRSISLQYVDTGELAKAGEKLLSAKGTIMVDKRTNRLLLRDNRAALAELEKWVSQMDLPVAQVELAAHIVTINEKSLRELGVKWTLADATQAGAVGDVTTLSSDLSVAAATSRVGFNIGRINGRLLDLELSALEQKQQLDIIASPRLLASHLQPASIKQGSEIPYQVSSGESGATSVEFKEAVLGMEVTPTVLQKGRIRLKLHISQNVPGQVLQQADGEVLAIDKQEIETQVEVKSGETLALGGIFSRKNKSGSDSVPLLGDIPWLGQLFRHDGKEDERRELVVFITPRLVATE | failed |
| MKRWQMEWLLVSVALVWGANYTIGKYGVAFMSSIQFNSLRFLVASPVLLLITFLMERSLRIERKDWLRLVAVGIVGTTMYQTMFMLSVKYTSATNASLLIAMSPIFTGILAVLHKQERFSMKVQIGSIVAFIGAAFVLLTGHTGGATYEYAWLGNIIGLVAAIAWGWYPILAQPLITKYSAMRVTSWSTLIGIVPLVIYCLFNVNTLTWPVDTPSWGSLAYSIVFATIFGLAMWYVGISQIGSTKVMVYMYLVPLFAVIFAAVIIGEQINMMQLVGGLIIFIGLYVVKKGGMKKPALNLKKVS | failed |
| MKSACSIITASIVLYKSKPDIIRDVITSFFSDTVTKKKLILIDNSPTDSLRVLQEERPEDIQYFFNNRNIGFGSAHNIGIREAARFNPSYHLILNPDVQFGPEVVPTLASYMDENPDIGLLMPQVYYPNGELQHLCKLFPRPWDVMLRRFVPYRSYRERNNERFELRNWSYDTIQDIPSLSGCFMFARMDILREVGGFDERFFMYAEDLDLCRRIGQVSRTVFFPKVSIMHTYAKGSYHDAKLLRHHIVSLIRYFNKWGWLFDAERRRVNRACLAVLRNQTTVKKD | failed |
| MKSAPDWIAHPDTPYLLIDEAKLKSNINYLKQRVESLGSHLRPHLKTLRTLEAAGYLLDSKSAPATVSTLAEAEAYAKAGYTDLLYAVGIAPAKLKRVAALRQQGINLHILLDNITQAQAVVDYAAEFGQDFSVFIEIDSDDHRGGIKPSDSKLLTIAKTLGEHFTGLMTHAGGSYACNTEQGLKNFAKQECDAVRIARNNLETAGIHCAITSVGSTPTAHFGEDFSDISEVRAGVYTTFDLVMKNIGVCDFSHIAMSVVTTVIGHNKEKNWLLTDSGWMALSRDSGTAGQNRDFGYGQVCKIDGSVLDGLCVNSTSQEHGVIELSDAYQLEDFPVGHQLRIMPNHACATAAMHPVYHVLMSDGSHNTWQRITGW | not failed |
| MKSEFYQGKIKQYDATKGFGFIGGLEQDVFFHISDFPLEEGEPKRNERVKFMVVENNGKFKAVKIQRVVDQSAKAKKSRAVENNTSITSALLSNFKK | failed |
